Patent publication US20060239990A1, “Protein Arginine N-Methyltransferase 2 (PRMT-2)” (priority 2003, published 2006)

Tests used:
[1] = system: NF-κB; test: NF-κB luciferase reporter assay in 293T cells; assay type: cell-based, human
Procedure: Cell culture, transfection, and reporter gene assays. The E1A-transformed, human kidney cell line, 293, and NIH-3T3 cells were maintained in Dulbecco's Modified Eagle Medium (DMEM) supplemented with 10% fetal calf serum and penicillin-streptomycin at 37° C. in 5% carbon dioxide in tissue culture grade Petri dishes. PRMT-2−/− mouse embryo fibroblasts (MEFs) and wild type MEFs were prepared from day 13.5 embryos and maintained in DMEM supplemented with 10% fetal calf serum. MEFs at passage 4 were used in this experiment. Lipofectamine Plus™ reagent (Boehringer Mannheim) was used to transfect both 293 and NIH-3T3 cells according to directions from the manufacturer. […] TNF-α stimulation of cells was done using recombinant TNF-α (200 U/ml) for 12 hours. […] CAT assays were performed essentially as described in Leung, K. & Nabel, G. J. Nature 333, 776-778 (1988). To analyze the κB-reporter activity in MEFs, cells were transfected with the reporter (2×kB-Luc) and PRL-TK vector (Promega) using FuGENE6 transfection reagent (Roche). Luciferase activity was analyzed by Dual-Luciferase Reporter Assay System (Promega).
To map the domains responsible for inhibition of HIV transcription, truncation and point mutations were made in PRMT2 (FIG. 1D) and co-transfected with an NF-κB reporter in 293T cells. PRMT2-A represents an alternatively spliced form of PRMT2 found in the expressed sequence tag (EST) database. This isoform contains the first 218 amino acids of PRMT2 and differs from full length PRMT2 by the absence of the less conserved COOH-terminal domain. PRMT2-N was generated by introducing a stop codon after amino acid 95 before the putative Ado-Met domain of PRMT2. To analyze the role of the Ado-Met domain further, another mutant, PRMT2-4A, was prepared in which 141ILDV144 (SEQ ID NO:5) in this region were altered to four consecutive alanines to compare the effects of point mutations in this highly conserved region.
The mechanism and site of action of PRMT2 in the NF-κB signaling pathway was further defined by co-transfection of PRMT2 and its mutants with different regulators in this pathway with an NF-κB reporter in 293T cells (FIG. 2D).

[2] = target: T1, RB (Homo sapiens, UniProt P06400); test: In vitro binding assay with GST-RB; settings: S35-labeled in vitro translated protein
T1 construct: coding region of RB cDNA was subcloned into pGEX-6P (Amersham/Pharmacia) for generation of GST-RB; made in house
T1 sequence (P06400 1-928): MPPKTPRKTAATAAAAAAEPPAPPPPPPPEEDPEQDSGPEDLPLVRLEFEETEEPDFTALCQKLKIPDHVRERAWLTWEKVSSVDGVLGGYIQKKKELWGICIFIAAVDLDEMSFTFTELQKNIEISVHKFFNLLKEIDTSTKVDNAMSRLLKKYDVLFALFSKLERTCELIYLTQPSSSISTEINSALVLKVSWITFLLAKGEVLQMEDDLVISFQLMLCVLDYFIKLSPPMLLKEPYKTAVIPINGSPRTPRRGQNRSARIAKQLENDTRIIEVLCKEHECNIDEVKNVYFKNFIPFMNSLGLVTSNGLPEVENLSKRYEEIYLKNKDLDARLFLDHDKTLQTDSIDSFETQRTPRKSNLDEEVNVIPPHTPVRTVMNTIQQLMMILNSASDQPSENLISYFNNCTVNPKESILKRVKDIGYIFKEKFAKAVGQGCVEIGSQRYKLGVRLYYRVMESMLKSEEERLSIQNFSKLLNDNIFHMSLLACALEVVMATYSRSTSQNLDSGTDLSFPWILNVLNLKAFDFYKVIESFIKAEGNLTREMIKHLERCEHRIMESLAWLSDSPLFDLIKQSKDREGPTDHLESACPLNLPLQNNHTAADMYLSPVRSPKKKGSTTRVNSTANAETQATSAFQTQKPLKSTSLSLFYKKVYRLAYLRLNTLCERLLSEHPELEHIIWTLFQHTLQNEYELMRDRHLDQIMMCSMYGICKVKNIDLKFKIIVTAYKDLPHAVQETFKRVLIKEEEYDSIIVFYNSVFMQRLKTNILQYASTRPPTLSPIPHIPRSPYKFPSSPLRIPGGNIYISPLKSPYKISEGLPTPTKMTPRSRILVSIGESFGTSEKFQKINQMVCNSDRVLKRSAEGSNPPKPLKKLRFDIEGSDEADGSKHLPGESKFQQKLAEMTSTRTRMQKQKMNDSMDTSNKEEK
Procedure: The crude cell lysate of the GST-fusion proteins was prepared and purified according to the manufacture's protocol (Amersham/Pharmacia). [^35S]-methionine-labeled protein was produced by in vitro transcription/translation using the TNT T7-coupled reticulocyte lysate system (Promega). [^35S]-methionine-labeled protein and GST-fusion protein bound to glutathione sepharose 4B beads were incubated in 500 μl of HNE buffer (50 mM Hepes, pH 7.8, 150 mM NaCl, 1 mM EDTA, 1 mM DTT, 1% NP40, and 1× protease inhibitor mix (Complete: Roche)) at 4° C. for 1 hour. Beads were washed four times with HNE buffer, and then analyzed on an SDS-PAGE gradient gel (4-15%). For the detection of endogenous PRMT-2 interaction with RB, MEFs were lysed with WCL buffer (50 mM Hepes, pH 7.8, 400 mM NaCl, 2 mM EDTA, 1 mM DTT, 0.2% NP40, 10% Glycerol, 20 mM α-glycerophosphate, 5 mM NaF, 0.1 mM NaVO4, and 1× protease inhibitor mix). Then, 1 mg of whole cell extracts were incubated with HNE buffer without DTT and 3 μg of antibodies as indicated. The immune complexes were isolated using protein G beads, and washed four times with HNE buffer. The precipitated protein was boiled with SDS-loading buffer and resolved on SDS-PAGE. For immunoprecipitation of HA-tagged protein, transfected cells were lysed with RIPA buffer (phosphate buffer saline containing 1% NP40, 0.5% sodium deoxycholate, 0.1% SDS, and 1× Complete), and 100 μg of whole cell lysates were immunoprecipitated with anti-HA antibodies and washed in RIPA buffer. Western blot analysis was performed as described in Tanner et al. (1998). Circ Res, 82, 396-403.
To test whether PRMT family members interact with RB, S^35-labeled in vitro translated PRMT1, PRMT2, PRMT3, and PRMT4 (CARM1) were incubated with GST-RB fusion proteins or control GST, and co-precipitated labeled proteins were resolved by SDS-PAGE. […] An equal amount of GST-RB and GST were loaded in each lane, verified by Coomassie staining (FIG. 8B).

B1: PRMT2: human PRMT-2 polypeptide, SEQ ID NO:2, expressed from pVR1012 vector with HA-tag (protein, listed as Homo sapiens)
chain: MATSGDCPRSESQGEEPAECSEAGLLQEGVQPEEFVAIADYAATDETQLSFLRGEKILILRQTTADWWWGERAGCCGYIPANHVGKHVDEYDPEDTWQDEEYFGSYGTLKLHLEMLADQPRTTKYHSVILQNKESLTDKVILDVGCGTGIISLFCAHYARPRAVYAVEASEMAQHTGQLVLQNGFADIITVYQQKVEDVVLPEKVDVLVSEWMGTCLLFEFMIESILYARDAWLKEDGVIWPTMAALHLVPCSADKDYRSKVLFWDNAYEFNLSALKSLAVKEFFSKPKYNHILKPEDCLSEPCTILQLDMRTVQISDLETLRGELRFDIRKAGTLHGFTAWFSVHFQSLQEGQPPQVLSTGPFHPTTHWKQTLFMMDDPVPVHTGDVVTGSVVLQRNPVWRRHMSVALSWAVTSRQDPTSQKVGEKVFPIWR
modifications: HA tag
NF-κB activity ([1]; 1 μg expression construct, 100 ng 5 κB luciferase reporter): inhibited NF-κB activity | IKK2- and p65-induced NF-κB activity ([1]; κB luciferase reporter, 48 hrs): inhibited both IKK2- and p65-induced NF-κB activity | binding to RB [2]: directly interacts with RB
